Measurements reported in EP4063498B1.

Target: OXA-23-type carbapenemase (UniProt Q9L4P2)
Assay: indirect ELISA, plate coated with OXA-23-type carbapenemase at 0.2 ug/mL, serial dilution of purified antibody from 1:1,000
Settings: scale: dilution factor

Sequence of UniProt Q9L4P2 (Q9L4P2 18-273 limits assumed): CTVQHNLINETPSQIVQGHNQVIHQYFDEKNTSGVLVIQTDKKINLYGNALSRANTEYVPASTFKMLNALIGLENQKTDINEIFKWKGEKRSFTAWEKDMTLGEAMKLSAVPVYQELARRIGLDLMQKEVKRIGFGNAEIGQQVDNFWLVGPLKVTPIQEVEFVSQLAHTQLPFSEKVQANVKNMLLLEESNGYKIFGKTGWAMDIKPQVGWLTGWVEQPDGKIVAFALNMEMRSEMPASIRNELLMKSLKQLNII

B1: antibody HB12 (antibody, V domains shown)
VH: VQLQQSGAELVKPGASVKLSCKTSGYTFTSYWMYWVKQRPGQGLEWIGEIYPTNGRTNYNEKFKTKATLTVDKSSSTAYMQLSSLTSEDSAVYYCAIYYYGSYAMDYWGQGTSVTVSS
VL: DIVMTQSHKFMSTSVGDRVSITCKASQDVSIAVAWFQQKPGQSPKLLIYWASTRHTGVPDRFTGSGSGTDYTLTISSVQAEDLALYYCQQHYSTPYLFGGGTKLEIKR
  titer: > 640000

B2: antibody FA2 (antibody, V domains shown)
VH: VQLKQSGPGLVQPSQSLSITCTVSGFSLTSYGVHWVRRSPGKGLEWLGVIWRGGNTDYNAAFMSRLSITKDNSKSQVFFKMTSLQGDDTAIYSCVKSLTTSTFDYWGQGTLVTVSS
VL: DIVMTQSHKLMSTSVGDRVSITCKGSQDVRTAVAWYQQKPGQSPNLLIYWASTRHTGVPDRFTGSGSGTDYILTITSVQAEDLALYYCQQHYSIPYTFGGGTKLEIKR
  titer: > 640000
